US20110293648A1 (LUDWIG INSTITUTE FOR CANCER RESEARCH, published 2011)
Each block holds one molecule with its values, some of them ahead of it.

Tests used:
HLA-DR = experiment: flow cytometry, staining of an EBV cell line (internal control)
MHC class I = experiment: as above
HLA-DRB1*0301 [1] = molecular target: HLA-DRB1*0301 (human); experiment: cell-based or functional assay
HLA-DRB1*0301 [2] = molecular target: T1, HLA-DRB1*0301 (human); experiment: not specified ('The methods described above')
T1 construct: whole, on cells; also called DR3; HLA-DR3

HLA-DRB1*0701 = molecular target: T2, HLA-DRB1*0701 (human); experiment: not specified ('The methods described above')
T2 construct: whole, on cells; On LCL 40 or homozygous EBV line BH in the T cell assays

HLA-DRB1*1101 = molecular target: T3, HLA-DRB1*1101 (human); experiment: not specified ('The methods described above')
T3 construct: whole, on cells; On antigen presenting cells in the ELISPOT assays

HLA-DRB5*0101 = molecular target: T4, HLA-DRB5*0101 (human); experiment: not specified ('The methods described above')
T4 construct: whole, on cells; On Me 290 cells in the ELISPOT assay

HLA-DRB1*1501 = molecular target: T5, HLA-DRB1*1501 (human); experiment: not specified ('The methods described above')
T5 construct: whole, on cells; On Me 290 cells in the ELISPOT assay

HLA-DRB1*0101 = molecular target: T6, HLA-DRB1*0101 (human); experiment: not specified ('The methods described above')
T6 construct: Only the beta allele is printed

MFI (MHC class I): 271 MFI
Molecule: anti-pan MHC-I antibody clone W6/32

binding result (HLA-DRB1*0301 [2]): binds | binding result (HLA-DRB1*0701): binds
B3: SSX-2 peptide p101-115 (peptide)
peptide: FGRLQGISPKIMPKK

binding result (HLA-DRB1*1101): binds | binding result (HLA-DRB5*0101): binds | binding result (HLA-DRB1*1501): binds | binding result (HLA-DRB1*0101): binds
B4: SSX-2 peptide p98-112 (peptide)
peptide: QMTFGRLQGISPKIM
notes: also called p98-111 (as printed once); SSX-2 98-112

Further lines, the molecule ahead of its results:

Molecule: anti-HLA-DR antibody clone L243
MFI (HLA-DR): 787 MFI

B1: SSX-5 37-51 peptide (peptide)
peptide: WEKMKASEKIFIVYM
cross-recognition by SSX-2 specific, DR3 restricted CD4+ T cells, peptide titration, IFN-gamma ELISA; efficiency against SSX-2 37-51 (HLA-DRB1*0301 [1]): ~3 fold less efficiently

B2: SSX-4 37-51 peptide (peptide)
peptide: WEKMKSSEKIVYVYM
cross-recognition by SSX-2 specific, DR3 restricted CD4+ T cells, peptide titration, IFN-gamma ELISA; efficiency against SSX-2 37-51 (HLA-DRB1*0301 [1]): ~10 fold less efficiently
